According to PMC5553193 (2015):
Ends that are not written are not given here.

Molecular target: concanavalin A (Canavalia ensiformis, UniProt P02866)
Test: ITC

Chain of concanavalin A (P02866 whole entry, looked up): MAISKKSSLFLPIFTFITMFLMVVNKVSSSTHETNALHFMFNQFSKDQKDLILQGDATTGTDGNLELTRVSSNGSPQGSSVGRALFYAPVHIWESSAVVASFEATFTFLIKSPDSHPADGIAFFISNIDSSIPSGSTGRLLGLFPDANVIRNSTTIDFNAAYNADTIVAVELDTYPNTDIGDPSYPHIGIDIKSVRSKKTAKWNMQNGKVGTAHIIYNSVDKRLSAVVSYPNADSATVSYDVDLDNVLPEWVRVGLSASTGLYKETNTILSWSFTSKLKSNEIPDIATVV

Row | Binder | Kd [µM]
1 | Man-WYDLF [Man-WYDLF (L37)] | 4.6
2 | Man-WYDLFDNINS [Man-WYDLFDNINS (L30)] | 4.3
